According to publication PMC5206705 (Scientific Reports, 2017):

Molecular target: the molecule itself
Test: SEC; preparative Superdex 200 in 50 mM Tris pH 8.0, 125 mM sodium chloride; elution at approximately 80 kDa against a 44 kDa monomer

B1: β-ketoacyl-acyl carrier protein synthase FabF from Listeria monocytogenes (enzyme, UniProt A0A0B8RFI6 1-413, looked up)
chain: MDKRRVVVTGIGAVTPIGNDAETSWENAKKGVNGVAKMTRLNPDDFPVKIAAELKDFDVEKYLEKKEARKMDRFTHYAIASAEMAVQDSGLVIDDSNANRVGVWIGSGIGGMETFETQYEIFLNRGHRRVSPFFVPMMIPDMGSGQVSIRFGAKGINSTTVTACATATNSIGDAFKVIERGDADAMITGGAEAPITKMSLAGFTANKALSLNPDPETACRPFDKDRDGFIIGEGAGIVILEEYEHAKARGAKIYAEIVGYGATGDAYHITAPAPNGEGAARAMKMAIDDAGLTPDKVDYINAHGTSTPYNDEYETQAIKTVFGDHAKKLAISSTKSMTGHTLGASGGIEAIFALLTIRDNIIAPTIHLKNQDEVCDLDYVPNEAREANVNVVISNSFGFGGHNATLVFKRIED
notes: FabF (β-ketoacyl-ACP synthase II) of Listeria monocytogenes, amplified from genomic DNA ATCC 19115D-5 with primers from the start to the stop codon; the construct encoded the full length protein; monomer about 44 kDa; Vector pMCSG21 with a TEV site; a few residues of the site may remain at the N-terminus after cleavage (surmise); also called LmFabF; β-ketoacyl-ACP synthase II; source: E. coli …
stoichiometry N: 2
